Measured values from a protein production outcome set (Wang et al. 2014).

Assay: label from the status in PepcDB records

**Q.** Which protein production does the source give for “MVKHLQVRGRLYYRSLAHGLRLTMRRLLFCFLLVLTSLTAIAAEPARPKVGLVLSGGAARGLAHIGVLKALEEQGVRIDAIAGTSMGAVVGGLYASGYSVEELEKLATTLDWQQALSDAPPREDVPFRRKQDDRDFLVKQKLSFRDDGSLGLPLGVIQGQNLSLLLESKLAHTADTRDFDKLPIPFRAVATDIASGEKVVFRRGHLPQVIRASMSIPAVFAPVELDGRLLVDGGMVDNIPVDVAREMGVDLAIVVDIGTPLRDRKQLLTVVDVLNQSITLMTRRNSEEQLASLHRDDILIQPSLTAFGVTDFGRARHMIDAGYRATRLLDPRLAALRQLEGDASLAVARSPRQRTPVITAIRIENDSKVSDDVIRSYIRQPIDAPLELDRLQTDMGTLYGLDYFDRVQYRVVHKGNDHTLVINARGRRGGTDYLRLGLNLSDDLRGDSAFNLGASYRVNGINSLGAEWLTRGQIGDQQALYSEFYQPLDVGSRYFIAPYLDLGSQNIEATLDNDPVAEYRLERYGFGLNVGRQIGNSGEVRLGVGKAWGEAEVRIGDQDLPKVSFNEGFYELKYSFDTLDNVYFPHHGEDIGLTLRKYDKSLDSDQDYRQWLFTLDKAISSGPNTFVLGGSYGRTLDDTEVVTSSFVMGGARQLSGFREDSVSGQNASLLRMVYYRRLTPRAYVPLDFPLYIGGSLERGRAWNNDNEFDSGYINAASIFLGLDTPLGPLNFSYGANSAHEQAVYLNLGHTF” here?
**A.** failed

**Q.** Which protein production does the source give for “MVKHQQTPAYIAAILYSFIIGLSFLFVKIALQTAEPFDILAHRFTIAFAAATVPILFGWVKLSILVKDVIDILPLALLYPALFFSFQAFGLVYSSSSEAGIIQAAIPIFTMVFAAYVLKERPTWTQKGFTVLSVAGVMFIFVMKGVDVESASLKGSLLILLSALSSAMYNTAARKMTQRFKLTELTYIMSAIGFVVFNAIALVRHGAAGTVGTYFLPFREPGFVLAIVYLGVLSSLVTSFLSNYTLSRIEAFKMSAFNHVSTIVTMIAGFVILNESLAWYHLAGAVCIMIGVVGSNINLEKKTKRPGMPAKK” here?
**A.** failed

**Q.** Which protein production does the source give for “MVKNGQSKRQPWVKNLYSNREYPDNYTDASFLKDLRTNLHCRIYTFGEAIAGITVLNNQISCITGFLILYQLMLSDSVSPTTILVPSCGITGIGYLCYRGRSLSWALLGEDSKTLVTVVLFGYLFSPMLHTLTQAISTDTIYTMTFFVLLGNLIFGHYGLDVAMVSKVGNIYGYWSQAVSLNAAIFGAICLASRLPTSYHAFVLLVEAAVFFVLYPIMTEANWHAGFMLPIFAICCMALYCISRPVLYLYASTTIFINFVCPFIFVWQQQYKFNIHGPWDEAIVEENTEENLDGNL” here?
**A.** failed

**Q.** Which protein production does the source give for “MVKVIFFDLDDTLVDTSKLAEIARKNAIENMIRHGLPVDFETAYSELIELIKEYGSNFPYHFDYLLRRLDLPYNPKWISAGVIAYHNTKFAYLREVPGARKVLIRLKELGYELGIITDGNPVKQWEKILRLELDDFFEHVIISDFEGVKKPHPKIFKKALKAFNVKPEEALMVGDRLYSDIYGAKRVGMKTVWFRYGKHSERELEYRKYADYEIDNLESLLEVLARESSSNKKVHPPRQQI” here?
**A.** not failed

**Q.** Which protein production does the source give for “MVKVTYDGVYVLSVKDDVPAADVLHAGDLITEIDGNAFKSSQEFIDYIHSKKVGDTVKINYKHGDKNEQADIKLTAIDKKGTPGIGITLVDDLEHHHHHH” here?
**A.** not failed

**Q.** With “MVKVYAPASSANMSVGFDVLGAAVTPVDGTLLGDVVSVEAADHFRLHNLGRFADKLPPEPRENIVYQCWERFCQALGKTIPVAMTLEKNMPIGSGLGSSACSVVAALVAMNEHCGKPLNDTRLLALMGELEGRISGSIHYDNVAPCFLGGMQLMIEENGIISQ” as the sequence, how does the protein production read?
**A.** failed

**Q.** With “MVKWYKTYLEVYGKSFDEISDDSIRKVKRQLKERQNDSPLVSVVLIAHNEERHLISCIWSLSENHCHFPIEIIAVNNNSTDKTEEILKSLGVTYYNETKKGPGYARQCGLDHAKGKYHICIDADTLYPPHYIETHVKYLMNPKVACTFSLWSFMVDERHSRFGLWCYEGLRDIYLRLQAIQRPELCVRGMAFSFNTEIGRRFGFRTDIIRGEDGSLALAMKPYGKIVFITSRKARVLTSNGTLNSEGSLIDNIWIRVIKALKEITGLFIKKTAYKDKDSNLIKLEHHHHHH” as the sequence, how does the protein production read?
**A.** failed

**Q.** With “MVLAVLFPTYPAYEFAGYALPGVSTTLGVFSLTVLTNTVLFALAYPLVLGARNALTGNVSVVMFVGRRVAADDLATVHGSLLESSAGGFTRSGLDLDALRMYLRWRDCTLADLRSDPGLRHPDTLPDTPGDPTDGAVATDGSGDPWGAAAFLADIDHSAYGTTPAQLRDGLDLITDHDDVWVTPGVPFLLPLFAGLVVALTFGDVLFYVLDALGFAAA” as the sequence, how does the protein production read?
**A.** failed

**Q.** With “MVLEHCRDAIESHGVETDIISLRGMKIESCRACLSCAKKHRCRIDDGLNDIIDRIRDSEGFIVATPVYFGTARGDLMAALQRIGMVSRASDGFLSWKVGGPIAVARRGGHTATIQELLMFYFINDMIVPGSTYWNMVFGWAPGEVEDDSEGIETIRRFGENVAELIKRINGGSLEHHHHHH” as the sequence, how does the protein production read?
**A.** failed

**Q.** For “MVLLSIDFASLHTILESLYNEMMPLCEDMLGVAKGVAGLGALFYVALRVWQSMARAEPVDVYPLLRPFALGICILLFPTLVLGTMNSILSPIVQGTHRMLEGQTLDMQQYRAQKDRLEREAMMRNPETAYLVSDEEFDRQLDELGWSPGDAATRLGMYMEVGMYNLEKSIRDAFRSLLELLFAAASLLIDTVRTFFLVVLSVLGPIAFSISVWDGLQSTLGQWFTRYISVYLWLPVSDLFSCMLAKIQVLMLQNDIAELQGNPDYSLDNSNCVYIIFMLIGIVGYFTVPTVSGWIVQAGGGGNYSRNLNRTATKAGGFTAGAGGAALGNIGGRIRGK”, which protein production is on record?
**A.** failed

**Q.** For “MVLPPVFYLARMWLMSQDSRVFFRIFFGIGLVLILISVVIFYNQFTYSKDAIHTEGVIVDTVWHSSHSHRTGKNGSWYPVVAFRPTPDYTLIFNSSIGSDFYEDSEGDKVNVYYSPGHPEKAEINNPWVNFFKWGFIGIMGVIFISVGLLISMPSSKKTRRKRKSRP”, which protein production is on record?
**A.** failed

**Q.** With “MVLQKLPLIGLLLLLTIVASPANADGPVCPPSNKLSRASFPEGFLFGTATAAYQVEGAINETCRGPALWDIYCRRYPERCNNDNGDVAVDFFHRYKEDIQLMKNLNTDAFRMSIAWPRIFPHGRKEKGVSQAGVQFYHDLIDELIKNGITPFVTVFHWDTPQDLEDEYGGFLSERIVKDFREYADFVFQEYGGKVKHWITFNEPWVFSHAGYDVGKKAPGRCSSYVNAKCQDGRSGYEAYLVTHNLLISHAEAVEAYRKCEKCKGGKIGIAHSPAWFEAHDLADSQDGASIDRALDFILGWHLDTTTFGDYPQIMKDIVGHRLPKFTTEQKAKLKASTDFVGLNYYTSVFSNHLEKPDPSKPRWMQDSLITWESKNAQNYAIGSKPLTAALNVYSRGFRSLLKYIKDKYANPEIMIMENGYGEELGASDSVAVGTADHNRKYYLQRHLLSMQEAVCIDKVNVTGYFVWSLLDNFEWQDGYKNRFGLYYVDFKNNLTRYEKESGKYYKDFLSQGVRPSALKKDEL” as the sequence, how does the protein production read?
**A.** failed

**Q.** With “MVLYFIGLGLYDERDITVKGLEIAKKCDYVFAEFYTSLMAGTTLGRIQKLIGKEIRVLSREDVELNFENIVLPLAKENDVAFLTPGDPLVATTHAELRIRAKRAGVESYVIHAPSIYSAVGITGMHIYKFGKSATVAYPEGNWFPTSYYDVIKENAERGLHTLLFLDIKAEKRMYMTANEAMELLLKVEDMKKGGVFTDDTLVVVLARAGSLNPTIRAGYVKDLIREDFGDPPHILIVPGKLHIVEAEYLVEIAGAPREILRVNV” as the sequence, how does the protein production read?
**A.** not failed

**Q.** With “MVMFRGHLLCFGLGYSALRLARGLLRDGWRVSGTCRSEEKRQALSAQGITAFVFDETTPLPAEAWTGVTHVLVSIPPGPDGDPVLALHRADLLALRPEWLGYFSTTGVYGDTGGAWVDEGKPVRPTQERSKRRVAAEEDWLDLWRDEDLPVHLLRLAGIYGPGRSVFDQLRAGTAKRIIRPGHAFSRIHVDDIGLITRASMADPDPGAIYNLVDDEPAEPSEVMDHACALLGIDPPPAQSFDEVAPGLSPMALSFWADNRKVSNERLWDDLRLRLLYPTFRQGLEAILAEETGRVAEGPPVYKEASDC” as the sequence, how does the protein production read?
**A.** failed

**Q.** Which protein production does the source give for “MVMPVKKVEKNILVLHGADKMFELVDKVEDYPHFLPWYSKTEVIGRSGNELKARLFMDYMHVRQSFATHNRNIPGREIRMELLEGPFKTLRGTWKFIDLGDDMCKIEFNLEYDFSNAVLSALISPVFNHLSVTLVEAFVKEADRRYA” here?
**A.** failed

**Q.** Which protein production does the source give for “MVNEYKRIVLLRGLECINKHYFSLFKSLLARDLNLERDNQEQYTTIQIANMMEEKFPADSGLGKLIEFCEEVPALRKRAEILKKERSEGETSLEKNGQEAGPATPTSTTSHMLASERGETSATQEETSTAQAGTSTAQAGTSTAQAGTSTA” here?
**A.** not failed

**Q.** For “MVNFAVWLDGVILKIDLTDSLYKIYKGDQISLPITYEVNDDWIKVYDRIREANLAILSPYDEITTKAILERINLKPTYVIANRGKTKPSREPYRILIEVTGWDPLQVVTLASSPLDLLSARFFDSRIKVICVKRYQDCSKYSPFLYSENLDDAISSLKRLKIIR”, which protein production is on record?
**A.** failed

**Q.** For “MVNLMILSGIVLLTCIISSKIFYKWGVPVLLVFIIIGMLFGSDGIGGIYFDNYNITYSLSSIALVFIMFYGGFCTEWKKARSVAIPSIMLSTLGVIITAGLTGLFCHFVLKTSIFEGLLLGCIVASTDAASVISILRSRNLKLKNNIDTLVEFESGSNDPTAYMLTSVMLIFITSNESVGIGLLGMIFKQIVFGVTVGLFLSKLAVFILRKVEFEIEGLYPIFTITVAILAYSISEFLGGNGYLSVFIAGIVMGNSKIPHKKSLNHFFDGLSWIMQIILFFMLGLLAFPSQLPSIAFEGIAISIFLILVGRPIAVFTILSWFKVPIKEQMFISWVGLRGAGSLVFAIYAITKTSAIENDIFHIIFFIALFSVAIQGTLIPWFAKKLDLICYEDDNHEDNMKNNIKDYIFEVKVGENNKVVNKAIMDSEIPDEILIVMIKRDNKVVIPKGFTIIKPNDTLVLTSENNEIMNSFLDEIR”, which protein production is on record?
**A.** failed

**Q.** For “MVNQNLTATEIGFTHEDFAALLDKYDYHFSPGDVVPGTVFSIEPRGALIDIGAKTAAYIPIQEMSINRVDAPEEVLQSNETREFFILTDENEDGQLTLSIRRIEYMRAWERVRQLQAEDATVRSGVFATNRGGALVRIEGLRGFIPGSHISTRKPKEELVGEELPLKFLEVDEERNRLVLSHRRALVERKMNRLEVGEVVIGTVRGIKPYGAFIDIGGVSGLLHISEISHEHIDTPHSVFNVNDEVKVMIIDLDAERGRISLSTKQLEPEPGDMIKNRDLVYDKAEEMAAKYREQLLAKQQGITLPAEGAEDLIEEEIPPATEDAVAEEEIVAVEEIPAAIEE”, which protein production is on record?
**A.** failed

**Q.** Which protein production does the source give for “MVPDWEEVLGLWRAGRYYEVHEVLEPYWLKATGEERRLLQGVILLAAALHQRRLGRPGLRNLRKAEARLEGLPCPLMGLDWRSLLQEARRRLGA” here?
**A.** not failed

**Q.** With “MVPHHWASLWNRQLALQTSVRRRLRKEIDLIRFLKATAAADELTGIVGIAAQVIEALGEWGVGLLTLLETVFPPIPSEVILPLAGFLTQQGSMNLILVFVTSTLGAYAGAMLLYWLGYKVGLERSIKLLSKLPLVDREDFEKAAEWFERHGKSAIFFGRLLPGVRSLISLPAGAERMNLATFSVFTVAGTGLWNALLIGAGALLGKQYHLVDQYSRFLNYAVYAGLAALLVWLIIRRVKKRKESTR” as the sequence, how does the protein production read?
**A.** failed

**Q.** For “MVPHIDGLFLRDVEAVLTAPDRADLPVLNPGLGTWVDKTTVTWFKFNHQLAVTIGDILQRNFHHAWPTYRMIPVVFKASTLCMHTWDSRHTLTVWTQFNLVARTLYRDNMRAMKRRWARGLDKSRWMTTTVWNDLVDMFTEFGPDDVGFMS”, which protein production is on record?
**A.** failed

**Q.** With “MVPRVPQPGIWCPAVTFFDSKTDTLDLASQERYYAYLARSGLTGLVILGTNAEAFLLTREERAQLIATARKAVGPDFPIMAGVGAHSTRQVLEHINDASVAGANYVLVLPPAYFGKATTPPVIKSFFDDVSCQSPLPVVIYNFPGVCNGIDLDSDMITTIARKNPNVVGVKLTCASVGKITRLAATLPPAAFSVFGGQSDFLIGGLSVGSAGCIAAFANVFPKTVSKIYELYKAGKVDQAMELHRKAALAESPCKSGIATTKYAAAIFSAKAAGIEDAEEKLRPRKPYDPPSEAAKQEVRKVMAEVAAIEAGLS” as the sequence, how does the protein production read?
**A.** not failed
